A protein production outcome set (Wang et al. 2014)

Test: label from the status in PepcDB records

| Sequence | protein production |
| --- | --- |
| MVPDVFIEVSLVIFIAFFISLVMRMLKQPLIIGYILTGILVSPYFLNIVRFEESISTLGHYGVTILLFMVGISLNPGYFKEIGKISLITGLGQILFTFSIGFLISVFLGYSLIESMYISIALTFSSTIIIMKLISDKGDIDKLYGKISIGFLIVQDIVAMAILVLISAFNVQSGAGELLFLIISKIVLILTAIYIFTKYALSNFISYASKNQEFLFLFSLMWCFTLASLFHLLGFSSEIGALIAGIVLAIFPERYEIASKVRPLRDFFLILFFVVLGVQMTFETSGNFIIPAIILSIFVLFGNPIIVMILMGAFGYTKKTGFLAGLTVAQISEFSLIIASLGLRNGHISQEIVSMITLIGIMTIAGSSYFITYSERIYALLSNYLSIFEKKTKISEKDFKNKNTGEIILFGADRTGKNILNVIENSKERFLIIDYNPKIIKNLSKRGYNSVYGDASNLELLNELNFKESKMLISTISDIETDILLIKTILKSNKNAIIIVIAHKIEDAIKLYEEGASYVIMPHFLGSIHASLMIQKYGLNIEEFLKEKSNHIESLKKSQELFRHTK | failed |
| MVPPRVSLLLRAETVVRPSVSAFPRKLPLVDMTAADALVGTTLAHRYRVESKIANGGMATVFLAHDLRLDRRVALKVMHANLARDPQFVQRFINEALAVAKLSHPNVVQVYDQGSDQGHVYLAMEYVAGQTLRAALKARTRFSPAEALRIMVPILAGLGAAHQAGMVHRDMKPENVLITHDGQIKVADFGLARAAEASQQGLTKTGTLMGTAAYLSPEQITHSTADARSDVYACGIMLYELLTGRQPHTGDSPIAVAYQHVNEDVPRPSRVVPGIPPEVDSLVVRATERDPAYRLANAGQFLAAVFAAQKALDEQPSAAVTSVMEMAPAPAGDTAEDSDNATRTLQGVELPPVEYDDYEDDRPPRPSLRTPLLVATVLLLVVAVGFGWWMVDGRYETVPDLVGVESDEARRDLRMLGFRVQTAEEPAYSDEAPPGTVAATDPEAGSRLLPDTLVTLILSAGPQYVEMPDVEGASVAEARDALKEVGLTDIVEDEITSFDNPPGTVITTKPAPGEKANREESVTLTISAGFPMPNVVGQKVDDARRLLESSDLEVTVVEEHHDEVPEGHVISQEPEAETTVGAGQSVTLTVSSGPELVEVPDIRGWKVDKARKELEERGFEVTVHQVIGNRVGDYNPKGEAPKGSTIEIWTSPFGRERDRDRGREDRLWIGLD | failed |
| MVPQTGRAARATRESGRQTRDALFTAATELFLEHGEGVPITQICAAAGAHPNQVTYYYGSKERLFVEVACAAVLRAGKRAEDDAATAETVGDYTEKLVGSLLGPGAPSVELFTSAMLMTGRRSELRDLITDTLRTLHSSGEVALIRTLMRTGWQLRAGIDVESKAFWSAIFGLVIQKTATGESFGYSLEEAVAVIFANLQIPETVRNTSID | not failed |
| MVPVVSPGPLVPVADFGPLDRLRGWIVTGLITLLATVTRFLNLGSLTDAGTPIFDEKHYAPQAWQVLNNHGVEDNPGYGLVVHPPVGKQLIAIGEAIFGYNGFGWRFTGALLGVVLVALVVRIVRRISRSTLVGAIAGVLLICDGVSFVTARTALLDGFLTFFVVAAFGALIVDRDQVRERMHIALLAGRSAATVWGPRVGVRWWRFGAGVLLGLACATKWSGVYFVLFFGAMALAFDVAARRQYQVQRPWLGTVRRDVLPSGYALGLIPFAVYLATYAPWFASETAIDRHAVGQAVGRNSVVPLPDAVRSLWHYTAKAFHFHAGLTNSAGNYHPWESKPWTWPMSLRPVLYAIDQQDVAGCGAQSCVKAEMLVGTPAMWWLAVPVLAYAGWRMFVRRDWRYAVVLVGYCAGWLPWFADIDRQMYFFYAATMAPFLVMGISLVLGDILYHPGQGSERRTLGLIVVCCYVALVVTNFAWLYPVLTGLPISQQTWNLEIWLPSWR | failed |
| MVPYLDGEDVAGVQSRVRMYNADENLLTKMQDIEFALFGNLIMRSRMKMGVPAFLGGNGQLVKRRAVEEIGGWDGYAVTEDLNLSVKLMLRGYDVKFSSEAEVFQEAVGDWPAFFRQRTRWLIGNLETLFVYLAPLIDAPITLHRKLDSLFYLFSMLFIGFVMLGYVVFILNLAGFTLRMNAPFIIGIISTIAFFPLVITGIRRDGYSLPRTLILSIEYWAYCLYLLPLFIVAAVHMIRRRERRWAKTFHTG | failed |
| MVQIQGCVVAAALCAVITLIAMQWLMAFDAANLVMLYLLGVVVVALFYGRWPSVVATVINVVSFDLFFIAPRGTLAVSDVQYLLTFAVMLTVGLVIGNLTAGVRYQA | not failed |
| MVQMNNFLFDAQNIATPLMLVDLDDTLFQTHRRIVPQTDFKMVTTDKQGQALAYMNPIQQHFVQWLLHSTHLIPVTARSAEALSRVHLPFQYGAVCSHGGTVLNPDFSVNVDWHVQMQQALTSYQERQQILIDALQQQAINFGSIRTWVVEEQGLGLYIVAKQNTENDNPYAPNFLPELLNSLSSEVLEGFYFHLNGNNLALIPQPVSKANAARFVLQQFASQQRPILGFGDSLSDVEFLNLCHWWGMPNHSQLNRWVKHNLTQQYKQEGFYGDYQ | failed |
| MVQSQSLSTLTICGSVKVSSLLRNRLNSVKASSLIGDRCVSCQFLRKSPSFRSHWKSLKQRNLLRVEARWPFQGGGEQGLDPSSERSESANEDILIFFFQLDLATRVQVKTKCRVFISFKMVANGFDVLQY | failed |
| MVRCVRLVEAGSVVRYLSTSICRPVVDAGSRALCLQEWADSQQVKEKQYSRDVQRAAALNIYRIPPSSRKPALCPTPRDRLEYDEDRLEHIAYVRARELHTLEVTGLETVAQSKAHVASLEGLIPEDKVVLLAGSPLQNEATLGQCGVEALTTLEVVGRRLGGNNCLSLQVNPVQPARYLWTTLHSSKQGEPNSSANHRCS | failed |
| MVRDIEDEIRDEKNPRPLDEDDIALLKTYGLGPYSAPIKKVEKEIKDLAKKINDLCGIKESDTGLAPPSQWDLVSDKQMMQEEQPLQVARCTKIISPNTEDAKYVINVKQIAKFVVGLGDKVSPTDIEEGMRVGVDRNKYQIQIPLPPKIDPSVTMMTVEEKPDVTYNDVGGCKEQIEKMREVVELPMLHPEKFVKLGIDPPKGVLCYGPPGTGKTLLARAVANRTDACFIRVIGSELVQKYVGEGARMVRELFQMARSKKACIVFFDEVDAIGGARFDDGVGGDNEVQRTMLEIVNQLDGFDARGNIKVLMATNRPDTLDPALLRPGRLDRKVEFGLPDLESRTQIFKIHTRTMNCERDIRFELLARLCPNSTGADIRSVCTEAGMYAIRARRKTVTEKDFLDAVNKVIKGYQKFSATPKYMVYN | failed |
| MVRETYALLTGLFVVILGSALIGIALVLGDYGTERDVYVVSTQGAVSGLNPESLVIFRGVRAGKVASISFAPHDPRTILVRIEVDKGLPITRGTYATLRVQPLTGLAQIDLSDEGNDPEPLRTDPRNPANIPLRPSLLDKLTGSGSDILTQIAQLTSRLNALLDDGNRQRIAHTLESLDTAADELVRLERYIEEGLERIPILDGRLRQALADHSAMARDVRETSRQVRALSESAQKVVDIGAAASDTLIRSRLPELDALIDDAAHTAASLRRLSKTLERDPQTLLLGPAPGLPGPGEPGFQEPK | failed |
| MVRLLHVSFVSHGAAWLPIHSCTGSHGQCERRAAGGPEAWATTPSLAAMPIDTRARQPSCDNRVMNDAALAPDVSAALERGLQAQSLDTAFAAPLLRYLALLVRWNKTYNLTAVRDPRAMVTRHLLDSLAMQPYIASGMLADLGTGPGLPGIPLAITRPQLQVTLVESNGKKARFMREALRHLELRNARVAESRAEALDEPTAYDHLTARALDTLAGIIAVGGHLLRPGGSLLAMKGIYPHEEIAALPEGWTMSEVHQLQVPGLDGERHLVVVRKA | failed |
| MVRRLTNGRWGLTLLILALMYIIALGLMARPAAADPGITLVLNGSRVNPSVPAYTDSNGRTMVPVRFVMEHMGGRVEWLDAEQGIVVSRGATTLKMWIGKRQAQVNGQAIDLDTVPVLQDGTSMVPVRFVAQAFGGKVEWDDASRTVSIWLGTASPAGQVRITGSYVNVRTGPGTSYGVIDVLPRDTLVQLLATGDGWYQVQLPDGRQGWVSASYSEVLQGNNQPQDTNPPGNNQPGNGQSPGNNPSPGNNQPGNEEPPSGQPLGTAIIGNKPVAILAGPNPVEKQVGMAPAGSRLPIWQQQGDWWLVELDNGLRGWLASSLATFSPEKPGQDNGGSETGNGGTAPGEGNQGVGNSDSNSLKITGVTVNPGPDWIEVTVQGTRPFTFKSSRWADHLIFDIPGATLAVAPGQDKVEVNRQPLARVRLGQYDANTVRVVCDLNGAANFTTTTAGSTITIRLQKPSVRGAKIVIDPGHGTDPQGSDPGAIGPSGVQEKDVNLAISRKLAELLRAAGATVYMTRDGETTPYTLSGRAYYANEVGADLFICIHSNASLSPSASGTSTYFYAPPGTALGEQRDARQRLATLIQRDLVAAIGRRDLGVKEANFAVLRNTKMPSVLVETAFISNPTEEQLLASPDFQALVAQGIFNGISDYLSGQ | failed |
| MVSCSNQQTQTKAITVSDTTLLSAEEFSQKIKKEPNALILDVRTPEEFSEAHIANATNVNWKDNFASGITEVNKNQPVLVYCLSGGRSASASDYLRKNGYTQVYELQGGLLKWQASNFEVVADTVTAAQDSGMTLQQFEALLVTDKYVLIDFYATWCGPCKMMEPALEDIAATMSDKVIVVRIDVDKNEELSKHFEVESLPTVQIYKNKKLVWEDIGYKTKKQLVSQLK | failed |
| MVSDWLLLAPPAAFITAALALFVVDAISSDETSGWLLSGVTTAGGLAAAAIAGVLLLSETAAGGVELFGGQLVVDGMSLLFTFIFGSVTALVAVASLDYIRDLPHKAEYYLLISLAATGMSLMASANSLVVVFISLELASLPSYALVAYLKNNRGSVEAGLKYFLIGALSSGIMLYGISLIYATTGSFLLGDIAASVGEAASTHPGVFGVGLLMVIGGFAFKTASVPFHFWAPDAYEGAPAPVAAFLSSASKAAGFVIAFRVLLVGFPIQEVAATVDWVLLFQILAVVTMTVGNFAAATQSNVKRMLAYSSIGHAGYVLIGLAALTNVGGPTAEATVLGASMLHLLVYGFMNTGAFLFVAMVEHWDVGRTFEDYNGLAREAPLACVAMTIFLFSLAGLPVGGGFLSKYYLVVGAVGTGVWWLAVVLAINSALSLYYYSRVVKAMWIESPAESLTIERYPTALYAAVMAAAAVTVLLLPGLFVFDGAAFDAAAALL | failed |
| MVSFVFNGGALWSVLLLALRKRRFNVDPAMMAMTIAIYAYCAANLVASIVNSAIARDALHLIPLVTFLFFPISYSTWSITQKTTLVRIIVLSSMAACFVALLLAVFQQHWLGMRAEGGAGNAIVFAEVLCLAVLVCVAGALSDIERHRIALLCAALGGTIAIIYSGTRIVWLALLIAGIAVLLINQHRLKGRNAIRLLVLLLAAGAVIAAVGFQTISGRVDFLRSDLDALAVNGDHTTAIGLRLAVWDIGLKAFREMPLFGHGVGATQALIKQGFHDQFGMDAGFNHFHNGFLTALVQAGLLGAVTLAAMFVVAARNAAVVLRNSTDPIERFGATMIVIMVITYLTSGMTGILIGHDILDSVLMVFLVSGTYLASGRQAPLPQDQALPPETEERAPAPVAEDALLPGMENRALRLTQ | failed |
| MVSIDTLIFQALNSSKFHPLYSPSINSINLQDDWAEKEGKEELSSILLLHRKASPPPPISALPNRNHKLQPLNLLFIDFPGQSFQQRERFRQFTASVRVYYVNDRKLNVQEGALIFFVRGVRYSLPLRELCDIYGFDNDLIGVALPGQFKDAQIFWSRFSNGIYDSKDAVHSEIRHLVLRYLVRLISSTLFCKMEPGKMRLSELLVLYHVVHDFFPDSLRFEEVDRDVNVGAVFAHHLVSLKTKPFTGRGKKLERVGSLLTPIFEHFRISFEGEELPCTALTKITSEHEELSFCPDPSLMHAAPRTRRHRGLASRSAPTQTEDEFIDPAEGLRVGSSSSALPYQLPSPPPIPMEPHVFQQYVVDSFKSVWNAIATLSR | failed |
| MVSIIIPIYNVQDYINDCLYSVYTQTYSEIEVILVNDCTPDNSMLIAHSNIEKLKKRFNVKIIDHKSNKGLSAARNSGVKEATGEWVYFLDSDDEITPDCIECFVRLAERYLSVDFIVGGIRVIGRNISYRLTTSEYVIGNDNILKCYISGMWYEMAWNKLIRKEYFVSNNLWFKEGLLHEDQLFSYQLATTALTMATVNKPTYIYKMRMSGAITSSNGRKNFDSFICILEYMVYSVMQKYSTSSVTLEYAQIIRFSYSILLSLYGKHNLTEMEVVNYELKVDRICRIVTFYKCKLPVPIQIKLTIIKLPQTMRKVLLKWHNKKIQKKLEHHHHHH | not failed |
